From patent publication US20140223606, “COMPOSITIONS AND METHODS COMPRISING SEQUENCES HAVING MEGANUCLEASE ACTIVITY” (PIONEER HI BRED INTERNATIONAL INC, published 2014)
Residue numbers refer to the chain shown, from its start.

Legend:
Details in all cases: tags: NLS, 6xHis
MHP14(13) = molecular target: T1, MHP14(13) (artificial); assay: cell_activity; yeast 37 C; 28 C: 1
T1 chain: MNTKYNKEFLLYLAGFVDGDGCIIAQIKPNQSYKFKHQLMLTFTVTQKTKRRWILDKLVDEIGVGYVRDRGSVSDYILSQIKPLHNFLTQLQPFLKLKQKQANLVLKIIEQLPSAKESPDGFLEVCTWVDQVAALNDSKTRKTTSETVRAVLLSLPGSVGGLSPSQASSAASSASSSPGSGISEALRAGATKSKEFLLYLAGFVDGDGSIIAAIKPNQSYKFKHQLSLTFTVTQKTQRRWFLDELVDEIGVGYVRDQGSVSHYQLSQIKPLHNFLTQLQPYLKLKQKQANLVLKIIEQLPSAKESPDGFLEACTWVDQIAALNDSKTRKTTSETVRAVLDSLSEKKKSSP
Description: (§1) A 3 mL culture of selective media (MP Biomedical) was inoculated with a single colony of the yeast screening strain and grown at 30° C. overnight. On the following day, a 50 ml YPD culture (MP Biomedical) was started with 2 ml of the overnight culture and grown at 30° C. overnight. On the following day, the cells were harvested by centrifugation at 4000 rpm. The cells were resuspended in 100 ml ice cold water and centrifuged again. The cells were then washed in 1.2 M sorbitol, followed by treatment with 2 ml of 10 mM Tris pH 8.0, 1 mM EDTA, 100 mM Lithium acetate, 10 mM DTT, 0.6M sorbitol for 30 minutes at 30° C. with shaking. The cells were recovered by centrifugation, washed in 40 ml 1.2M sorbitol and finally resuspended in 250 microliters of 1.2M sorbitol. 50 microliter aliquots were transferred to test tubes on ice. Up to 5 microliters of DNA (100-500 nanograms) were added. The suspension was transferred to a 0.2 cm electroporation cuvette, on ice. Electroporation was performed with a pulse charge at 1.5 kV, 200 ohms, 25 microF (pulse time of 5 milliseconds). 1 mL YPD media (MP Biomedical) was added and the cells were allowed to recover at 30° C. for 1-2 hr. The cells were centrifuged, resuspended in 100 uL 1M sorbitol and plated on selective media lacking leucine and containing 2% galactose. The resulting yeast colonies were incubated at various temperatures ranging from 22 to 37 degrees Celsius for 7-10 days. I-CreI and meganucleases derived from it have maximal activity at or above 37 degrees Celsius. Screening was performed at a range of temperatures from 22 to 37 degrees in order to observe increases in activity at lower temperatures which are relevant to certain biological systems (eg. plant cells, plant cell cultures, etc). At that time the red/white sectoring phenotype, indicative of meganuclease activity was observed. Colonies with increased white sectoring over the parental meganuclease (indicating colonies expressing a meganuclease with increased meganuclease activity), also referred to as “hits” and sometimes completely white, were isolated for further analysis. […]

MHP14(14) = molecular target: T2, MHP14(14) (artificial); assay: cell_activity; yeast 37 C; 28 C: 1
T2 chain: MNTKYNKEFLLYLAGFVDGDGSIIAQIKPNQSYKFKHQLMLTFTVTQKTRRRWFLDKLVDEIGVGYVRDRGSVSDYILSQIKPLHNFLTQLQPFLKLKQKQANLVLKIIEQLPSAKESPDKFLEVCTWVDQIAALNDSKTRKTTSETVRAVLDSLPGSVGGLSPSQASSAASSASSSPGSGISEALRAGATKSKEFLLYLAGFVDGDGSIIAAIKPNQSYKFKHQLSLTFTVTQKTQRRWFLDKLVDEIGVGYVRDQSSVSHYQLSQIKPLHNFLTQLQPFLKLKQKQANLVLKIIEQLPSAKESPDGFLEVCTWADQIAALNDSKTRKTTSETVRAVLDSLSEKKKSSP
Description: as §1

MHP14(08) = molecular target: T3, MHP14(08) (artificial); assay: cell_activity; yeast 37 C; 28 C: 1
T3 chain: T2 chain with S22C, R50K, F54I, D56L, S258G, G308K
Description: as §1

MHP14(03) = molecular target: T4, MHP14(03) (artificial); assay: cell_activity; yeast 37 C; 28 C: 0.5
T4 chain: T1 chain with G19S, K50Q, D56L, V59H, N103V, L153D, A312V, V316A, I319V
Description: as §1

MHP14(07) = molecular target: T5, MHP14(07) (artificial); assay: cell_activity; yeast 37 C; 28 C: 0.5
T5 chain: T1 chain with K50R, D56L, V59H, N103V, G121K, L153D, E244K, G308K, A312V
Description: as §1

B1: MHP14 recognition site (dsDNA)
DNA 1: CAAACAGATTCACGTCAGATTT
DNA 2: AAATCTGACGTGAATCTGTTTG
- activity (MHP14(13)): 3.5 score 0-4
- activity (MHP14(14)): 4 score 0-4
- activity (MHP14(08)): 4 score 0-4
- activity (MHP14(03)): 3 score 0-4
- activity (MHP14(07)): 2.5 score 0-4
